Data set [1] in a line: In vitro BrM permeation assay, Ussing chamber. The class given is in vitro ADME, porcine. The note with it: 0.1 mg/ml, up to 72 h, in words. The procedure: Porcine Bruch's membrane samples are used for this measurement. Porcine eyes are collected from the slaughterhouse) no more than 6 hours after the animals were sacrificed and stored at 4° C. until use (on same day).
Preparation of enriched Bruch's Membrane (BrM): The eyes are placed into a disposable petri-dish and any residual tissue surrounding the eyeball is removed. The eyeball is incised next to the iris with a scalpel and the front part of the eye as well as lens, vitreous and retinal tissue are removed from the eyecup. […]
Sampling and membrane integrity analysis: For sampling at different timepoints (4 h, 24 h, 48 h and 72 h) the solution in the single compartments is mixed by carefully pipetting up and down and 90 μl were transferred separately from each sample and diffusate chamber to collection tubes. […] Accumulation of blue particles in the second compartment is observed and camera pictures are recorded to control for overall membrane integrity.
Sample analysis: 15 μl of each solution from the sample and diffusate chambers are effectively loaded on 2 precast polyacrylamide gels (NuPAGE Bis-Tris gels) together with a similar amount of stored mastermix as loading control. The first gel is analyzed by standard SDS-PAGE and Coomassie-based staining methods for protein detection (anti-C3 scFv). […]
Evaluation: Pictures of the SDS-gels are analyzed using ImageJ2 software (Fiji). […]

A further data set has as its system pre-existing ADA. Kind of data set: Bridging ELISA screen for pre-existing ADA in sera of healthy human donors. The note with it: 10% serum of healthy human donors. An excerpt:
The inventors screen sera of healthy human donors for pre-existing ADA against Clone I using a bridging ELISA. Pre-existing ADAs present in serum from healthy human donors are bound by immobilized anti-C3 scFv. In a next step, ADAs are bound by the same anti-C3 scFv labeled with biotin and are detected by HRP-conjugated Streptavidin.
The scFv is biotin-labeled using the “Biotin Conjugation Kit (Fast, Type A)-Lightning-Link”-Kit (Expedeon/Abcam) following the suppliers' instructions. The unlabeled scFv is diluted to 0.5 μg/ml in PBS, 50 μl per well transferred to a 96 well plate and incubated overnight at 4° C. On the next day, the 96 well plate is washed with wash buffer (3×320 μl, 0.05% Tween 20 in PBS pH 7.4) and non-specific binding sites are blocked with 300 μl/well blocking buffer (SuperBlock Blocking Buffer; ThermoFisher scientific) for 30 min at room temperature. The wells are then washed with wash buffer (3×320 μl/well)
Human serum from healthy volunteers is diluted to 10% in PBS, 50 μl/well are added to the 96 well plate and the plate incubated for 1 hr at room temperature. […]
The plate is washed (3×320 μl/well wash buffer), 50 μl/well TMB substrate (Invitrogen) is added and incubated for 5 min at room temperature. […] The absorption is measured at 450 nm. […]

The results in this text go back to patent US12344663B2, “Anti-C3 antibodies and antigen-binding fragments thereof and their uses for treating eye or ocular diseases” (CDR-Life AG, priority 2021, dated 2025).

B1: Clone I: humanized anti-C3 scFv, VH SEQ ID NO: 20, VL SEQ ID NO: 21; scFv SEQ ID NO: 26 or 27 (antibody, V domains shown)
VH: QVQLVESGGGSVQPGRSLRLSCAASGFTFSNYAMNWVRQAPGKGLEWVAVISYDGSNKYYADSVKGRFTISRDNSKNTLYLQMNSLRAEDTASYYCARAVGYHHARLDPWGCGTSVTVSS
VL: QLVLTQSPSASASLGASVKLTCTLSSAHKTYTIDWYQQQPEKCPRYLMQLKSDGSYTKGSGIPDRFSGSSSGAERYLTISSLQSEDEADYYCGTEGVGGYVFGGGTKLTVLG
modifications: VH; VL
For the molecule B1, in data set [1], the “Diffusion/penetration through porcine Bruch's membrane” value is recorded as “superior diffusion ability”. Also, the “Serum samples with pre-existing ADA” value in the data set with pre-existing ADA is reported as 9 out of 50.
